Results reported in paper PMC4978918.

Legend:
Test in all cases: co-IP; anti-V5 IP of Scc4-3V5 or scc4-RID-3V5 from yeast extracts, cells at midlog phase in YPD at 23°, IPH50 buffer (50 mM Tris pH 8.0, 50 mM NaCl, 5 mM EDTA, 0.5% NP-40), 4°; blot with anti-Myc (Scc2) or anti-HA (Smc1)
[1] = biological target: scc4-L490ins-3V5 (S. cerevisiae) (UniProt P40090)
[2] = biological target: scc4-S505ins-3V5 (S. cerevisiae) (UniProt P40090)
[3] = biological target: scc4-L305ins-3V5 (S. cerevisiae) (UniProt P40090)
[4] = biological target: scc4-V485ins-3V5 (S. cerevisiae) (UniProt P40090)

- co-precipitation, percent of the wild-type level [1]: 50%
- co-precipitation, percent of the wild-type level [2]: 50%
- co-precipitation, percent of the wild-type level [3]: 50%
- co-precipitation, percent of the wild-type level [4]: 50%
B1: Scc2-12Myc (natural protein)
chain: MSYPGKDKNIPGRIIEALEDLPLSYLVPKDGLAALVNAPMRVSLPFDKTIFTSADDGRDVNINVLGTANSTTSSIKNEAEKERLVFKRPSNFTSSANSVDYVPTNFLEGLSPLAQSVLSTHKGLNDSINIEKKSEIVSRPEAKHKLESVTSNAGNLSFNDNSSNKKTKTSTGVTMTQANLAEQYLNDLKNILDIVGFDQNSAEIGNIEYWLQLPNKKFVLTTNCLTKLQMTIKNITDNPQLSNSIEITWLLRLLDVMVCNIKFSKSSLKMGLDDSMLRYIALLSTIVLFNIFLLGKNDSNLHRESYIMEPVNFLSDLIESLKILTIEYGSLKIEFDTFQEALELLPKYIRNGPFLDDNVTAKLVYIFSDLLMNNDIEATTNIQFQSFWDNVKRISSDILVSLFGSFDQQRGFIIEELLSHIEKLPTKRIQKKLRKVGNQNIYITDFTFTLMSMLENINCYSFCNQMKDIAPENIDLLKNEYKKQEEFLFNIVEHINDTILERFFKNPSALRYVIDNFVQDLLLLISSPQWPVTEKILSSLLKRLLSVYSPSMQVSANIETICLQLIGNIGSTIFDIKCSTRDHEDNNLIKMINYPETLPHFFKSFEECIAYNETIKCRRSATRFLWNLRLGTILILEEYTKDAKEQIITVDNELKKILEQIKDGGLGPELENREADFSTIKLDYFSILHAFELLNLYDPYLKLILSLLAKDKIKLRSTAIKCLSMLASKDKVILSNPMVKETIHRRLNDSSASVKDAILDLVSINSSYFEFYQQINNNYNDDSIMVRKHVLRINEKMYDETNDIVTKVYVIARILMKIEDEEDNIIDMARLILLNRWILKVHEVLDQPEKLKEISSSVLLVMSRVAIMNEKCSQLFDLFLNFYLLNKEAHSKEAYDKITHVLTILTDFLVQKIVELNSDDTNEKNSIVDKQNFLNLLAKFADSTVSFLTKDHITALYPYMVSDEKSDFHYYILQVFRCTFEKLANFKQKFLYDLETTLLSRLPKMNVREIDEAMPLIWSVATHRHDTARVAKACSSCLSHLHPYINKANNEEAAIVVDGKLQRLIYLSTGFARFCFPKPSNDKIAFLQEGETLYEHITKCLLVLSKDKITHVIRRVAVKNLTKLCGNHPKLFNSRHVLHLLDKEFQSDQLDIKLVILESLYDLFLLEERKSVRNTGVNSTLSSNSILKKKLLKTNRVEFANDGVCSALATRFLDNILQLCLLRDLKNSLVAIRLLKLILKFGYTNPSHSIPTVIALFASTSQYIRHVAYELLEDLFEKYETLVFSSLSRGVTKAIHYSIHTDEKYYYKHDHFLSLLEKLCGTGKKNGPKFFKVLKRIMQSYLDDITDLTSTNSSVQKSIFVLCTNISNITFVSQYDLVSLLKTIDLTTDRLKEVIMDEIGDNVSSLSVSEEKLSGIILIQLSLQDLGTYLLHLYGLRDDVLLLDIVEESELKNKQLPAKKPDISKFSAQLENIEQYSSNGKLLTYFRKHVKDT
